Measured values from US20230233707A1.

Target: CD40 (UniProt P25942)
Test: cell-based or functional assay

LOB7/6 (antibody) was tested, and the EC50 from CD40 activation experiments (bioluminescent CD40 effector CHO cell assay) was -1.47 log(µM).
